Key:
Assay in all cases: IEDB peptide-MHC binding, purified MHC/competitive/radioactivity; ≥ and ≤ were set here for values at or beyond the usual limits of such assays
HLA-A*02:01 = molecular target: HLA-A*02:01
HLA-A*02:02 = molecular target: HLA-A*02:02
HLA-A*02:03 = molecular target: HLA-A*02:03
HLA-A*02:06 = molecular target: HLA-A*02:06
HLA-A*68:02 = molecular target: HLA-A*68:02
[1] = source organism: Vaccinia virus WR
[2] = source organism: Mammarenavirus lassaense
[3] = source organism: Hepacivirus hominis
[4] = source organism: Mammarenavirus brazilense

Sequence | IC50 (HLA-A*02:01; [1]) [nM] | IC50 (HLA-A*02:02; [1]) [nM] | IC50 (HLA-A*02:03; [1]) [nM] | IC50 (HLA-A*02:06; [1]) [nM] | IC50 (HLA-A*68:02; [1]) [nM] | also measured
IVTFINDYA | 4320 | 140 | 2960 | 1150 | 84 | –
MLSVVGFLV | – | – | – | – | – | IC50 (HLA-A*02:01; source organism: SARS-CoV1): 7.7 nM; IC50 (HLA-A*02:02; source organism: SARS-CoV1): 1 nM; IC50 (HLA-A*02:03; source organism: SARS-CoV1): 3.5 nM; IC50 (HLA-A*02:06; source organism: SARS-CoV1): 116 nM; IC50 (HLA-A*68:02; source organism: SARS-CoV1): 92 nM
TTFITVLTSV | 271 | 1120 | 16 | 166 | 15 | –
AVLSEYETMV | 9.7 | 0.76 | 1.5 | 24 | 1770 | –
IMFMLIFNV | 12 | 0.15 | 10 | 13 | 13 | –
CVSNLDISSV | 1480 | 52 | 2.3 | 48 | 1030 | –
LLWFLTGTFV | 0.32 | 2.4 | 9.2 | 18 | 0.13 | –
LATLNTLITL | 848 | 139 | 338 | 323 | 1040 | –
YASALVLLI | – | – | – | – | – | IC50 (HLA-A*02:01; source organism: SARS-CoV1): 13 nM; IC50 (HLA-A*02:02; source organism: SARS-CoV1): 3.2 nM; IC50 (HLA-A*02:03; source organism: SARS-CoV1): 4.9 nM; IC50 (HLA-A*02:06; source organism: SARS-CoV1): 8.7 nM; IC50 (HLA-A*68:02; source organism: SARS-CoV1): 10 nM
IVVALSSLV | 108 | 27 | 3.9 | 8.2 | 5.4 | –
FVVFLLVTL | – | – | – | – | – | IC50 (HLA-A*02:01; source organism: SARS-CoV1): 839 nM; IC50 (HLA-A*02:02; source organism: SARS-CoV1): 217 nM; IC50 (HLA-A*02:03; source organism: SARS-CoV1): 1640 nM; IC50 (HLA-A*02:06; source organism: SARS-CoV1): 38 nM; IC50 (HLA-A*68:02; source organism: SARS-CoV1): 120 nM
FVKENERVNV | 270 | 186 | 12 | 683 | 1290 | –
NCLSLLLSV | – | – | – | – | – | IC50 (HLA-A*02:01; [2]): 73 nM; IC50 (HLA-A*02:02; [2]): 49 nM; IC50 (HLA-A*02:03; [2]): 437 nM; IC50 (HLA-A*02:06; [2]): 630 nM; IC50 (HLA-A*68:02; [2]): 1850 nM
TLLIKTLSPA | 0.49 | 1 | 1.2 | 0.73 | 1210 | –
ITAIYVFCI | – | – | – | – | – | IC50 (HLA-A*02:01; source organism: SARS-CoV1): 127 nM; IC50 (HLA-A*02:02; source organism: SARS-CoV1): 29 nM; IC50 (HLA-A*02:03; source organism: SARS-CoV1): 89 nM; IC50 (HLA-A*02:06; source organism: SARS-CoV1): 132 nM; IC50 (HLA-A*68:02; source organism: SARS-CoV1): 272 nM
NVSRVVECL | 4110 | 133 | 938 | 1030 | 28 | –
PASISSVLT | 1200 | 1380 | 1360 | 1490 | 1490 | –
LLFNKVTLA | – | – | – | – | – | IC50 (HLA-A*02:01; source organism: SARS-CoV1): 5 nM; IC50 (HLA-A*02:02; source organism: SARS-CoV1): 0.95 nM; IC50 (HLA-A*02:03; source organism: SARS-CoV1): 1.1 nM; IC50 (HLA-A*02:06; source organism: SARS-CoV1): 9 nM; IC50 (HLA-A*68:02; source organism: SARS-CoV1): 288 nM

Sequence | IC50 (HLA-A*02:01; [1]) [nM] | IC50 (HLA-A*02:02; [1]) [nM] | IC50 (HLA-A*02:03; [1]) [nM] | IC50 (HLA-A*02:06; [1]) [nM] | IC50 (HLA-A*68:02; [1]) [nM] | also measured
RLLAPITAYA | – | – | – | – | – | IC50 (HLA-A*02:01; [3]): 29 nM; IC50 (HLA-A*02:02; [3]): 5.2 nM; IC50 (HLA-A*02:03; [3]): 25 nM; IC50 (HLA-A*02:06; [3]): 103 nM; IC50 (HLA-A*68:02; [3]): 94 nM
MLTNAISSRV | 208 | 53 | 0.11 | 224 | 101 | –
LLTDTIESA | 25 | 17 | 11 | 5.9 | 1240 | –
ALVCYIVMPV | – | – | – | – | – | IC50 (HLA-A*02:01; source organism: SARS-CoV1): 5.6 nM; IC50 (HLA-A*02:02; source organism: SARS-CoV1): 1.2 nM; IC50 (HLA-A*02:03; source organism: SARS-CoV1): 4.4 nM; IC50 (HLA-A*02:06; source organism: SARS-CoV1): 2.9 nM; IC50 (HLA-A*68:02; source organism: SARS-CoV1): 88 nM
TIAGGVCYYL | 0.24 | 0.036 | 34 | 4 | 0.13 | –
LAFVVFLLV | – | – | – | – | – | IC50 (HLA-A*02:01; source organism: SARS-CoV1): 610 nM; IC50 (HLA-A*02:02; source organism: SARS-CoV1): 458 nM; IC50 (HLA-A*02:03; source organism: SARS-CoV1): 1270 nM; IC50 (HLA-A*02:06; source organism: SARS-CoV1): 253 nM; IC50 (HLA-A*68:02; source organism: SARS-CoV1): 1000 nM
NTCKPTILAT | 4410 | 460 | 248 | 3920 | 1640 | –
YIMRVMANNV | 49 | 23 | 2 | 14 | 42 | –
IASSMKGENV | 727 | 751 | 3240 | 311 | 867 | –
QMAGVEVRYI | 6.4 | 0.21 | 0.14 | 45 | 147 | –
HSLPRCWLV | – | – | – | – | – | IC50 (HLA-A*02:01; [4]): 2130 nM; IC50 (HLA-A*02:02; [4]): 655 nM; IC50 (HLA-A*02:03; [4]): 147 nM; IC50 (HLA-A*02:06; [4]): 323 nM; IC50 (HLA-A*68:02; [4]): 660 nM
HIKTIAVSV | 1050 | 3080 | 9.6 | 1550 | 381 | –
AIAACAMLLV | – | – | – | – | – | IC50 (HLA-A*02:01; source organism: SARS-CoV1): 36 nM; IC50 (HLA-A*02:02; source organism: SARS-CoV1): 5.9 nM; IC50 (HLA-A*02:03; source organism: SARS-CoV1): 32 nM; IC50 (HLA-A*02:06; source organism: SARS-CoV1): 78 nM; IC50 (HLA-A*68:02; source organism: SARS-CoV1): 1430 nM
VQEFIFSAL | 614 | 419 | 466 | 198 | 552 | –
KLMGHFSWWT | – | – | – | – | – | IC50 (HLA-A*02:01; source organism: SARS-CoV1): 6.4 nM; IC50 (HLA-A*02:02; source organism: SARS-CoV1): 64 nM; IC50 (HLA-A*02:03; source organism: SARS-CoV1): 213 nM; IC50 (HLA-A*02:06; source organism: SARS-CoV1): 99 nM; IC50 (HLA-A*68:02; source organism: SARS-CoV1): 2080 nM
LIVILFIMFM | 139 | 85 | 433 | 120 | 60 | –
NIPELKHGLL | 2560 | 2300 | 2700 | 1230 | 100 | –

— the Immune Epitope Database (IEDB)
